Results published in article PMC314469, “Protein Interaction Networks by Proteome Peptide Scanning” (PLoS Biology, 2004).

T1: amphyphisin SH3 (AMPH_HUMAN), P49418
T1 chain: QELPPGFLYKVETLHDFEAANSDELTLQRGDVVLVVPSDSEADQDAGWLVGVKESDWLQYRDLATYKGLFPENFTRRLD


What was measured:
[1] = biological target: T1, amphyphisin SH3 (AMPH_HUMAN), P49418; experiment: SPOT array
[2] = biological target: endophilin SH3 (SH3G2_HUMAN), Q99962; experiment: SPOT array

Row | normalised SPOT signal, Boehringer light units (BLU); mean over the file's lines of this peptide [1] | normalised SPOT signal, Boehringer light units (BLU); mean over the file's lines of this peptide [2] | Binder
1 | 1280 | 2410 | PPHLPARPPGGWSR [BAC04291 42-56]
2 | 1010 | 464 | PMAPIRRPISAESA [P53675 58-71]
3 | 1320 | 9250 | PPGPPTRPPGPWRW [O15354 108-122]
4 | 59.4 | 760 | PPGKPERPPPQGGN [P10163 115-129]
5 | 20500 | 12100 | PPAPPTRPPRRSDS [P35443 278-292]
6 | 680 | 10400 | PLLPPKRPLSSSHE [Q9H6X0 119-132]
7 | 8020 | 15800 | PLMHPARPFRVSNH [O60543 29-42]
8 | 36 | 66 | PMEGIRRPDQALLP [O00253 27-40]
9 | 315 | 453 | PPAPLRRPLAVLHA [Q96BU4 174-187]
10 | 914 | 1320 | ASAPPRRPRPPPQS [Q9UEI9 3-16]
11 | 61.4 | 312 | PPGKPERPPPQGGD [P81489 133-147]
12 | 12.1 | 83.3 | PKRGPRRPKYSPPR [Q14669 1006-1019]
13 | 16000 | 20000 | PPARPPRPPYPPRR [AAH27972 518-532]
14 | 91.3 | 155 | PNIKISRPLKVLLT [Q9NPB9 231-244]
15 | 28.7 | 9.5 | PLRHFKRPAYASSS [Q14123 658-671]
16 | 1780 | 1220 | PLLHLTRPSRLEPG [P52849 207-220]
17 | 24.6 | 0 | PNYDLRRPHQYLHP [O94991 899-912]
18 | 70.2 | 191 | PNLLPHRPPLLVFP [Q9Y6X6 669-683]
19 | 37.6 | 48.9 | PKSVLKRPVTSEEL [Q9HA07 306-319]
20 | 201 | 172 | PLISFPRPVKTTWL [Q9P2D6 185-198]
21 | 2100 | 4850 | PLRPILRPRKYPNR [P11161 316-329]

Row | normalised SPOT signal, Boehringer light units (BLU); mean over the file's lines of this peptide [1] | normalised SPOT signal, Boehringer light units (BLU); mean over the file's lines of this peptide [2] | Binder
22 | 1910 | 3490 | PLPRFPRPPRALPA [P56730 61-74]
23 | 77.9 | 3470 | PPALPPKPPKPTTV [AAH30815 33-47]
24 | 131 | 398 | PNLIPRRPSPYEKT [O95450 1177-1190]
25 | 37.6 | 64.2 | PKKPPVKPPTEPIG [Q9ULW0 418-432]
26 | 88.3 | 2510 | PPALPPKPPKPMTS [Q92569 33-47]
27 | 21.6 | 60.7 | PKTYLRRPEASSPA [Q92932 113-126]
28 | 433 | 5470 | PPGLPPRPPLSSSS [Q13470 532-546]
29 | 7550 | 13900 | PPKRPGRPPKNRES [P55201 903-917]
30 | 14400 | 29300 | PPEKPPRPPRPLHL [Q8TEL4 110-124]
31 | 421 | 200 | ARVPLGRPRRRPRA [O60331 5-18]
32 | 2870 | 648 | PMVPPRRPWTLVNW [Q9NRZ5 298-311]
33 | 21.2 | 435 | ASAPPQRPPSGPEG [Q96LW7 145-159]
34 | 405 | 1570 | PNATPRRPLQELRR [Q9HCF2 2-15]
35 | 58.1 | 272 | PPASPRRPRSFKSK [Q9HCK6 1105-1118]
36 | 356 | 3740 | PPAPPLRPPGPPTG [Q9Y2W2 415-429]
37 | 124 | 4320 | PPALPPKPPKAKPA [O00459 298-312]
38 | 230 | 9160 | ASAPPRRPRPPPPS [Q9UEF7 3-16]
39 | 4680 | 744 | PLPAPRRPKVNSIL [Q9H3X8 431-444]
40 | 314 | 61.3 | PKTPPRRPVPVADS [Q9HA84 52-65]
41 | 4940 | 18500 | PLRLPPRPPGPRLA [O95822 14-28]
42 | 5210 | 1200 | PMRLPRRPLRAFES [O14545 178-191]
